From the DeepSol protein solubility set

Assay: soluble on expression in E. coli; label from the status in PepcDB or PDB records

Sequence	soluble on expression in E. coli
SLSTKNHFIFPTYVQMYPYSKDRPFLKQVREKLRYYGYKWLYQKQCSQLVDFLNTETQWQSLFTQDYYRTNTILTTFCDKRFSASERLTAITENLRLAEEKMGRSLCQQLLDQQHIVLTQLTEDLRLSLSINHIDPFEGYFSINIRNQNNERVYDSSFTFLSPNKLLIASIQGPSSDNAQELVKQATKALHGMRPMFMLVNGFKMLAEKWQCELVGIPHKAQGKYRLSARSKILFNYDEFWQENQGEYRHNYWQLPLHIERKQLEDIASKKRSMYRKRYEMLDQMALDIQQL	not soluble
MEMAAAVRKCATFIEEKIGKHIDVTTMAYNRLMNHIRHMVSRAATGEKLKVDLNQFIEKNYPESFALAGDICKELGKDLNHEFLDNETGYLAIHIEQIKCDEMVSE	not soluble
MGSDKIHHHHHHMESKSAVQLYLELLKKTILFEIWLEYEAYLPASLHISKELEFEPVTVPLPLFIKQYAENHNLKIVKPNVSKSERHDGMDWPRAAHSMIGRERMNQLQEAMETVVRENIEGDFIETGVWRGGSCIFMNGFLQANNITDRNVWVADSFEGLPAPNLEQYPKDYGDYLHTFDYLRVSLEQVQENFKKYDLLNDQVKFLKGWFKDTLPTAPIAAIAIARLDGDMYESTMDGLVNLYDKVSKGGYIIIDDYGLPPCAEAVTDFRNHRNLKAPITKIDVFGVYWRKE	not soluble
MSGIFGVIVSGRTPIEVVPVSDTEFTCEIVNADAINHVVVFLTGAQPFPDGIGGSGDHFQNFPPKKTQFISVYIRWPTQDGGNWHYLGFICNEKPSAIYKVAQLHKSDASHSFSQFDNQMQLYSSGSAQIGINAESLSDITGRQAADGTQASQQVKNLEKNT	soluble
GHHHHHHAIAENLYFQSEDPVFTFGLIADVQYADIEDGENYLRTRRRYYRGSADLLRDAVLQWRRERVQCVVQLGDIIDGHNRRRDASDRALDTVMAELDACSVDVHHVWGNHEFYNFSRPSLLSSRLNSAQRTGTDTGSDLIGDDIYAYEFSPAPNFRFVLLDAYDLSVIGREEESEKHTHSWRILTQHNHNLQDLNLPPVSVGLEQRFVKFNGGFSEQQLQWLDAVLTLSDHKQERVLIFSHLPVHPCAADPICLAWNHEAVLSVLRSHQSVLCFIAGHDHDGGRCTDSSGAQHITLEGVIETPPHSHAFATAYLYEDRMVMKGRGRVEDLTITYS	soluble
GPGSMRFRRVLAPLAASPHRWKTQRSPRGEETMGEGGAIEPDTSEAWVRNYVARAVREGRQTKESAEYFESIMNDQVEFRQYIQEARRLLNNQDPRTLTKYQRGHFAERLSRQMSGVAAERLMRAHAEESNARRHTQDGTPTGENYWFEAGNTLASPSVPGFVKDEVMREMREDRKKTSAAFEESEELQAMADKDEAFAEHLRRQRQHLFRSNDDVN	not soluble
MNVKSRQQENAEATREALLESALSAFIEHGYGGVSIDAIAREARVTKGAFYHHFGSKQELLAECYERQVRTIAEDLDRVPAHVDKWAEAAALAEAFIDSVMARGKRQLSLQEVITVVGWERWKRIDSRHTLRYVGRLVDELAASGELKDYRRETLVGQLYGFLTQAAMSLRDARNKRQAANEVKAIIRDFLYSLRRG	not soluble
MSLKTIAINQYGSADEFTMVDMPTTEPQADEVQVAIHAFSLNPMDIAGRMGALSSPFTDLWAFPLVLGWDFAGVITKMGKAVTGFNIGDAVFGSAAPAHAANNGTYGEFITVNTKELAHLPAGLSFDQAAALPIAGLTAYYGMKHNLKLQSGQKILVQGGAGGVGLFAIQIAKAFGAYVATTASANHRDLLTRLGADEVIDYHETDPAAVLHDYDAVFDTVGDIDTGLKVLKADGQLATIAGQPTDEQQHDQQKKVAFQFTQGSSQDLADLAQLVVSGQVKLTVATLPFSVANVIKGHRSIESRHTTGKIVIHVTEGHHHHHH	not soluble
VSQVHRILNCRGTRIHAVADSPPDQQGPLVVLLHGFPESWYSWRHQIPALAGAGYRVVAIDQRGYGRSSKYRVQKAYRIKELVGDVVGVLDSYGAEQAFVVGHDWGAPVAWTFAWLHPDRCAGVVGISVPFAGRGVIGLPGSPFGERRPSDYHLELAGPGRVWYQDYFAVQDGIITEIEEDLRGWLLGLTYTVSGEGMMAATKAAVDAGVDLESMDPIDVIRAGPLCMAEGARLKDAFVYPETMPAWFTEADLDFYTGEFERSGFGGPLSFYHNIDNDWHDLADQQGKPLTPPALFIGGQYDVGTIWGAQAIERAHEVMPNYRGTHMIADVGHWIQQEAPEETNRLLLDFLGGLRP	soluble
SLMAGLPNSSNALQQWHHLFEAEGTKRSPQAQQHLQQLLRTGLPTRKHENWKYTPLEGLINSQFVSIAGEISPQQRDALALTLDSVRLVFVDGRYVPALSDATEGSGYEVSINDDRQGLPDAIQAEVFLHLTESLAQSVTHIAVKRGQRPAKPLLLMHITQGVAGEEVNTAHYRHHLDLAEGAEATVIEHFVSLNDARHFTGARFTINVAANAHLQHIKLAFENPLSHHFAHNDLLLAEDATAFSHSFLLGGAVLRHNTSTQLNGENSTLRINSLAMPVKNEVCDTRTWLEHNKGFCNSRQLHKTIVSDKGRAVFNGLINVAQHAIKTDGQMTNNNLLMGKLAEVDTKPQLEIYADDVKCSHGATVGRIDDEQIFYLRSRGINQQDAQQMIIYAFAAELTEALRDEGLKQQVLARIGQRLPGGAREGGSHHHHHH	soluble
MSQSNHPGGKDAGSIPRVLISADRSSSGKTTISMGLMAALVSRGYKVQPFKVALDYIDPSYHTEITGRFCRNLDGYLMDEHGILDVYTHACETGGGADIAIIEGVRGLFEGFESLSDVGSTAQIAKILKCPVVFVINARSITRSAAALIGGYKNFDPDVEIAGVILNNIGGRRHAQKAKEAIEHYTGVPVLGIIPRDPSMQISMRHLGLMPALEGRRRFGDGGFENRLHGIEEIINKGIDVDRFLGIAESAKPLTALENSIFSPAVNENSQKPKIGVALDEAFNFYYRDNIDLLEIAGAEIVYFSPVNDPGLPEVDGLYIGGGYPELFAAELEANETMRKSIKEASAAGMPIYAECGGLMYLTEKISTGVPGKGTYHDASMPESTYSMVGALPGHTIMGQTRVVSYNIGTLARDCPIGKKGNSFKGHEFHHSEILEIPDDAEFAIALTRGTGIRGDRDGLIVNNTIGSYAHLHGVAYRELAGSLVEAARKFRDSRVSSLEHHHHHH	soluble
IIYKETKPEEYNLRNPVVTQDYTVSMSGGNDRGTYYASLGYNDSPGAPITTEYTRYNFTFNGSYKIADWLKTTSNATFSRANYVWLNNDWGTEADYFGRVMSSPPTVRFEDEDGNSTLGPSPGDGNQTYVARSYDQDNERTKLTLMQSVEANLFKGLVLRASASWYYFHTVEENMRKDYETVPGQWDRTRSTSASYSRQFSQTYNAVLDYTTTFATSHNLNVMLGSEFYDQYNNGFSASGFGASTDDFKKLGLTDAGEGKRSIDSSHSRYRILSYFGRLNYDYEGKYLFSGVFRYDGYSSLLGKNRWGFFPGVSGGWVFTKEDFVKESLPFLYYGKLRASYGLNGNASGIGPYTLQGSYNSNKYHGNNGFLIGALPNPSLRWEKTASFDIGLNVGLLDGRLNLDIDYYNRLTSDKYADLTLPSTTGFSSIRNNNGKLRNRGIELQLSGKIMETRDFTWDASLNITYNKNKIIALPYNKEPRNRQEGQQVYTGRKIANPETGVFEDEKVWVGGFQEGMEYGVLVGYQAEGIYQSMDDIPGDLVVKSGNAQGKYQYGPDAWKRLSAAEQAKGVEIKPGDMKWKDVNGDGMIDQYDQVVIGNTTPRWFGGFNTTMSWKGLSLYARFDFALDYWVYDNQTPWLLGCMQGTYNTTKDVFNTWNESNPNAKYPRYVYGDQLGTANYNRTSTLFASKGNYLGVRELSLSYTLPQELSKKLYMQKLQFSITGQNLGYLTSARTVSPEISSGYPLPRTVILGVNVTF	not soluble
APPSSFSAAKQQAVKIYQDHPISFYCGCDIEWQGKKGIPNLETCGYQVRKQQTRASRIEWEAVVPAWQFGHHRQCWQKGGRKNCSKNDQQFRLMEADLHNLTPAIGEVNGDRSNFNFSQWNGVDGVSYGRCEMQVNFKQRKVMPPDRARGSIARTYLYMSQEYGFQLSKQQQQLMQAWNKSYPVDEWECTRDDRIAKIQGNHNPFVQQSCQTQ	soluble
GSHMASMTGGQQMGRGSEFKKYLETNGIKPKQFHKKELIFNQWDPQEYCIFLYDGITKLTSISENGTIMNLQYYKGAFVIMSGFIDTETSVGYYNLEVISEQATAYVIKINELKELLSKNLTHFFYVFQTLQKQVSYSLAKFNDFSINGKLGSICGQLLILTYVYGKETPDGIKITLDNLTMQELGYSSGIAHSSAVSRIISKLKQEKVIVYKNSCFYVQNLDYLKRYAPKLDEWFYLACPATWGKLN	soluble
ETLPLMMFTANGGGYLTYANKWLKDYFGMLEIQSGKTEWTSLVNSSDTKQVRDEWEKAQTNQTHFRAQAKLKSKTAESALWHLISLVPVKNDLNQITSWTGFFVDI	not soluble
MLLSIIMPAHNAAAYLERTLALLAQQIAGLEQVEVVAIDDASTDETAKILVEFARTHSWLKAISVDFANVGLARQAGIGLAGGQYVTFLDSDDAFLSGGLAWMVNVLRQRAPDLLMTPLQETGQPLDGTEVAGLFQDVVPLSTQQACDLFCEHQRLQGHFAGKCVTRQILLQHDLAAMECYEDMMTTPHWIVEAKSIVWGEVPVYAYYKRPGSLSDRGQTWRYGKEYIRALQSIEAAFAGRIAVWQTAHLWIGFAKDLLKTSTGRQFLDTQPAVAEKIQSISVWKYLVATQVSCKWKIRFLRVRLRLLEHHHHHH	soluble
MKQEVEKWRPFKHPDGDVRDLSFLDAHQVIYVQHHEDKEPLEYRFWVTYSLHCFTKDYEHQTNEEKLSLMYHAPKESRPFCQHRYNLARTHLKRTILALPESNVIHAGYGSYAVIEVDLDGGDKAFYFVVFRAFSEIFHHCLKLIEK	not soluble
VMPLILLPAVDVVEGRAVRLVQGKAGSQTEYGSAVDAALGWQRDGAEWIHLVDLDAAFGRGSNHELLAEVVGKLDVQVELSGGIRDDESLAAALATGCARVNVGTAALENPQWCARVIGEHGDQVAVGLDVQIIDGEHRLRGRGWETDGGDLWDVLERLDSEGCSRFVVTDITKDGTLGGPNLDLLAGVADRTDAPVIASGGVSSLDDLRAIATLTHRGVEGAIVGKALYARRFTLPQALAAVRD	soluble
MFGKGGLGNLMKQAQQMQEKMQKMQEEIAQLEVTGESGAGLVKVTINGAHNCRRVEIDPSLLEDDKEMLEDLVAAAFNDAARRIEETQKEKMASVSSGMQLPPGFKMPF	soluble
MGSDKIHHHHHHSDNAGRTDKQTATVHDSQKDTSSDSKSDNDKKDTKYKSADEITMDDLMSHDETPAEDFELIDNSDEIVIQKYIGKDPIMVIPDEINGKKVVSLGTYALANDKNIVAIKIGNNIKDLGEGVFGNCENLRYVVLGDSVKTIGCNPFLNTNIQEVTLNDGLQKIGEDDINNTVDAPSKNIGMDLKIPESVTEMHLRDFHLIVKAGSYAEQYAKEYAESNNLTYTVE	not soluble
MAHHHHHHVDDDDKMVPYTVRFTTTARRDLHKLPPRILAAVVEFAFGDLSREPLRVGKPLRRELAGTFSARRGTYRLLYRIDDEHTTVVILRVDHRADIYRR	soluble
MSLNIKDEHIDSVCSLLDQLVGNVSFKNLFTGYGLFHKEETMFAIWQNKKLYLRGEGVLAIQLTKLGCEPFTTNELNKRFVLSQYYALSDQILRSNRLCRKLIILSIKQILEQKLECTLRKLNRLKDLPNLTIKHERALIKVGITNVAMLREIGAENALVELKKSGSGATLDFYWKLVCALQNKNSQMLSQAEKERLLKKLNEVWRKNGLKGYRKLDDEEGHHHHHH	soluble
